Assay results taken from patent US20050042213.
Like-named read-outs stand apart in the source and are kept apart here.

T1: pro-heparanase (H60), purified recombinant human 60 kDa latent heparanase
T1 chain: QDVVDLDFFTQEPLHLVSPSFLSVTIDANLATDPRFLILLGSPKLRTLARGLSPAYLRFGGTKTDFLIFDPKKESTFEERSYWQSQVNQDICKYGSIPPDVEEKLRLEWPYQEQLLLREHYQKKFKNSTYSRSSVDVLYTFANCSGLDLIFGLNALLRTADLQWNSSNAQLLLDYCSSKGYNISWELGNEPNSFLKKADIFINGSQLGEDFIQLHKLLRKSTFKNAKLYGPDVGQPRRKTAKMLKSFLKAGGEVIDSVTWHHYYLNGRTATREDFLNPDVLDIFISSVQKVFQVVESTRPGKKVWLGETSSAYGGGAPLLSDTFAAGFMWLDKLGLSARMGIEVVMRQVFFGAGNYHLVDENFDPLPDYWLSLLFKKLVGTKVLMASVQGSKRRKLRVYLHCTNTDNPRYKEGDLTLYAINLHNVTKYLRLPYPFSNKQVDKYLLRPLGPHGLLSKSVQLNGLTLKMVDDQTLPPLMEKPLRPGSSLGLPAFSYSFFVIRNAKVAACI

T2: pro-heparanase (H60), purified recombinant human 60 kDa latent heparanase
T2 sequence: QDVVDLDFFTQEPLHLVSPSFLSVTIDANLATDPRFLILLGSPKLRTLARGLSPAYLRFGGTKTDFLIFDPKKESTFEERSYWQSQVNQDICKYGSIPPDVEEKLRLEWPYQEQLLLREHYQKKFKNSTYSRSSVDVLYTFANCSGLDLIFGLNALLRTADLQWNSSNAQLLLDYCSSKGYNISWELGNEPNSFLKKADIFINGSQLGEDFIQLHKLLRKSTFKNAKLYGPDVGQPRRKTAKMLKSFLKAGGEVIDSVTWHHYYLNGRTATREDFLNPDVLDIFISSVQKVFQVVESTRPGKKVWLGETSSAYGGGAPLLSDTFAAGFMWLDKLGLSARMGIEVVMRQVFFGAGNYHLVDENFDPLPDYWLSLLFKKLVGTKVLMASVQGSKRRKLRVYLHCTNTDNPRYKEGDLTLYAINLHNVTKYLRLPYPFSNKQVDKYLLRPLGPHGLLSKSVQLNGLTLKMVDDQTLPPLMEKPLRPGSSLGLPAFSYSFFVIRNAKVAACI


Legend:
[1] = target: T1, pro-heparanase (H60), purified …
[2] = tested on: T2, pro-heparanase (H60), purified recombinant human 60 kDa latent heparanase; remark: listed apart in the source

Row | Protein | heparanase activity after treatment (DMB assay) [1] | processing of pro-heparanase in vitro (Western blot) [1] | heparanase activity after treatment (DMB assay) [2] | processing of pro-heparanase in vitro (Western blot) [2]
1 | elastase from human neutrophils (Calbiochem, 324681) (protein) IVGGRRARPHAWPFMVSLQLRGGHFCGATLIAPNFVMSAAHCVANVNVRAVRVVLGAHNLSRREPTRQVFAVQRIFENGYDPVNLLNDIVILQLNGSATINANVQVAQLPAQGRRLGNGVQCLAMGWGLLGRNRGIASVLQELNVTVVTSLCRRSNVCTLVRGRQAGVCFGDSGSPLVCNGLIHGIASFVRGGCASGLYPDAFAPVAQFVNWIDSIIQ | treatment of the pro heparanase with cathepsin G or elastase activated the H60 | cathepsin G (FIG. 18) and elastase (FIG. 5), both serine proteases, cleave the pro-heparanase in-vitro, at or near the N-terminus of the H45 | – | –
2 | cathepsin G (Sigma, C4428) (enzyme, UniProt P08311 21-244, looked up, species assumed) Cathepsin G: IIGGRESRPHSRPYMAYLQIQSPAGQSRCGGFLVREDFVLTAAHCWGSNINVTLGAHNIQRRENTQQHITARRAIRHPQYNQRTIQNDIMLLQLSRRVRRNRNVNPVALPRAQEGLRPGTLCTVAGWGRVSMRRGTDTLREVQLRVQRDRQCLRIFGSYDPRRQICVGDRRERKAAFKGDSGGPLLCNNVAHGIVSYGKSSGVPPEVFTRVSSFLPWIRTTMRS | – | – | treatment of the pro heparanase with cathepsin G or elastase activated the H60 | cathepsin G (FIG. 18) and elastase (FIG. 5), both serine proteases, cleave the pro-heparanase in-vitro, at or near the N-terminus of the H45
